In US20200283521A1 one finds Kd data, which are given here for 2 substances.

This test has as its target human FcRn (human) (UniProt P55899). Description: SPR steady state at pH 6, FcRn coupled.

In general, Kd refers to the free concentration of one partner at which half of the binding sites on the other are occupied at equilibrium, for simple one-to-one binding.

human FcRn (human), sequence (P55899 24-297 limits assumed, chain 1 of 2): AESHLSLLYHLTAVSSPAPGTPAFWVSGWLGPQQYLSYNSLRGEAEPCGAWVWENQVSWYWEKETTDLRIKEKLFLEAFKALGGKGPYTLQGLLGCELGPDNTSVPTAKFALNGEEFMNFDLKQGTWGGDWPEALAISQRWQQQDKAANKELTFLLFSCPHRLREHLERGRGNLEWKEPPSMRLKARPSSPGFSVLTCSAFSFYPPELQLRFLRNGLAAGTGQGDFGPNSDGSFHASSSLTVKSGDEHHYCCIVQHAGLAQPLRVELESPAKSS
human FcRn (human), sequence (chain, as listed by the source limits assumed, chain 2 of 2): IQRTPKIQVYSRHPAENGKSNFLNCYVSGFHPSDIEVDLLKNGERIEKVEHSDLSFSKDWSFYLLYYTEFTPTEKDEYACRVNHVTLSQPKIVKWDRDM

With isotype control human IgG1 (antibody), the Kd was 1.18 µM.

For isotype control human IgG4 antibody, the Kd is 2.6 µM.
